# Assay results as given in paper PMC10766394.
# Molecular target: anti-VEEV human IgG1 antibody F5 with the loss of function Fc mutations L234A and L235A (hF5-LALA) (human)
# Test: ELISA
substance,measurement,value
mouse complement component C1q from normal mouse serum (from UniProt P98086;P14106;Q02105) (complex),fold reduction in binding against hF5-WT at 2.8 µg/ml,5.1 fold
